94 variants from the supplement of paper PMC10567573 can be followed below.

Sequences and labels used below:
B1: RSPH3 (parent)
chain: FIPAKTGKDVATQILEGELFDFDL
B2: SAT2 (parent)
chain: LTEAEGWHFFCFQGEATRKLAGK
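Further: lentivirally expressed fusions sorted by FACS into six bins by GFP to DsRed ratio, PSI derived from sequencing read proportions per bin multiplied by bin number.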

In the first data set the parent is B1. The data set is described as follows: protein stability index of a GFP-peptide fusion (GPS, HEK-293T) (PSI 1-6); higher = more stable. The conditions noted are these: c terminus: a fixed tail appended.
LIPAKTGKDVATQILEGELFDFDL: the protein stability index came out at 3.56. Still for that read-out and setting: for TIPAKTGKDVATQILEGELFDFDL the value was 4.34; for SIPAKTGKDVATQILEGELFDFDL, 4.66; for DIPAKTGKDVATQILEGELFDFDL, 4.77. As to GIPAKTGKDVATQILEGELFDFDL, the protein stability index came to 4.84.

Regarding HIPAKTGKDVATQILEGELFDFDL, the protein stability index is 4.32. Consider WIPAKTGKDVATQILEGELFDFDL, for which the protein stability index was 2.66. With YIPAKTGKDVATQILEGELFDFDL, the protein stability index came to 1.9. Still for that read-out and setting: for PIPAKTGKDVATQILEGELFDFDL the value was 4.33. Turning to IIPAKTGKDVATQILEGELFDFDL, the protein stability index turned out to be 3.89.

As to RIPAKTGKDVATQILEGELFDFDL, the protein stability index stood at 4.15. For QIPAKTGKDVATQILEGELFDFDL, the protein stability index came out at 4.69. Consider NIPAKTGKDVATQILEGELFDFDL, for which the protein stability index is 4.98. With AIPAKTGKDVATQILEGELFDFDL, the protein stability index was 4.14. The same measure, in the same setting: with MIPAKTGKDVATQILEGELFDFDL the figure was 3.93; with EIPAKTGKDVATQILEGELFDFDL, 5.01; with VIPAKTGKDVATQILEGELFDFDL, 3.54. For the variant FIPAKNGKDVATQILEGELFDFDL, the protein stability index is 1.91. For FIPAKIGKDVATQILEGELFDFDL, the protein stability index was 2.53. FIPAKHGKDVATQILEGELFDFDL: the protein stability index stood at 1.82. Take FIPAKCGKDVATQILEGELFDFDL: the protein stability index came out at 1.29.

FIPAKPGKDVATQILEGELFDFDL: the protein stability index was 1.42. With FIPAKLGKDVATQILEGELFDFDL, the protein stability index worked out at 1.87. Turning to FIPAKMGKDVATQILEGELFDFDL, the protein stability index worked out at 1.59. On to FIPAKEGKDVATQILEGELFDFDL, for which the protein stability index is 2.43. As to FIPAKFGKDVATQILEGELFDFDL, the protein stability index is 2.08. Turning to FIPAKYGKDVATQILEGELFDFDL, the protein stability index turned out to be 1.64. Consider FIPAKRGKDVATQILEGELFDFDL, for which the protein stability index came out at 1.71.

With FIPAKWGKDVATQILEGELFDFDL, the protein stability index came to 1.9. As to FIPAKVGKDVATQILEGELFDFDL, the protein stability index is 1.6. Regarding FIPAKGGKDVATQILEGELFDFDL, the protein stability index came to 2.12. On to FIPAKAGKDVATQILEGELFDFDL, for which the protein stability index was 2.

Take FIPAKKGKDVATQILEGELFDFDL: the protein stability index was determined as 2.22. Consider FIPAKQGKDVATQILEGELFDFDL, for which the protein stability index was determined as 1.64.

As to FIPAKDGKDVATQILEGELFDFDL, the protein stability index was 2.46. As for FIPAKSGKDVATQILEGELFDFDL, the protein stability index was 1.71. Still for that read-out and setting: for FQPAKTGKDVATQILEGELFDFDL the value was 3.04; for FNPAKTGKDVATQILEGELFDFDL, 2.83; for FWPAKTGKDVATQILEGELFDFDL, 2.3. On the same count and under the same terms, for FRPAKTGKDVATQILEGELFDFDL the value was 3.72; for FVPAKTGKDVATQILEGELFDFDL, 2.26; for FHPAKTGKDVATQILEGELFDFDL, 2.02. On to FLPAKTGKDVATQILEGELFDFDL, for which the protein stability index stood at 3.02. On to FCPAKTGKDVATQILEGELFDFDL, for which the protein stability index stood at 1.55. Take FTPAKTGKDVATQILEGELFDFDL: the protein stability index worked out at 2.85. On to FKPAKTGKDVATQILEGELFDFDL, for which the protein stability index came out at 3.86. The same measure, in the same setting: with FDPAKTGKDVATQILEGELFDFDL the figure was 4.39; with FFPAKTGKDVATQILEGELFDFDL, 2.86; with FGPAKTGKDVATQILEGELFDFDL, 3.73.

In the case of FYPAKTGKDVATQILEGELFDFDL, the protein stability index turned out to be 2.96. With FEPAKTGKDVATQILEGELFDFDL, the protein stability index came to 4.16. Turning to FPPAKTGKDVATQILEGELFDFDL, the protein stability index is 3.04. For FAPAKTGKDVATQILEGELFDFDL, the protein stability index amounted to 1.79. Still for that read-out and setting: for FSPAKTGKDVATQILEGELFDFDL the value was 2.84. Consider FMPAKTGKDVATQILEGELFDFDL, for which the protein stability index was found to be 3.26. Same read-out and setting: for FIPALTGKDVATQILEGELFDFDL the value was 1.85; for FIPAPTGKDVATQILEGELFDFDL, 2.22; for FIPAYTGKDVATQILEGELFDFDL, 1.88. On to FIPAHTGKDVATQILEGELFDFDL, for which the protein stability index was 1.92. Same read-out and setting: for FIPAETGKDVATQILEGELFDFDL the value was 2.95; for FIPATTGKDVATQILEGELFDFDL, 2.15; for FIPAFTGKDVATQILEGELFDFDL, 2.46. In the case of FIPARTGKDVATQILEGELFDFDL, the protein stability index is 1.75. In the case of FIPASTGKDVATQILEGELFDFDL, the protein stability index was found to be 2.01.

On to FIPAWTGKDVATQILEGELFDFDL, for which the protein stability index stood at 1.57. For the variant FIPAITGKDVATQILEGELFDFDL, the protein stability index was determined as 1.63. FIPAMTGKDVATQILEGELFDFDL: the protein stability index is 1.87. For the variant FIPAQTGKDVATQILEGELFDFDL, the protein stability index amounted to 2.21. On to FIPAATGKDVATQILEGELFDFDL, for which the protein stability index was determined as 1.77. As to FIPAVTGKDVATQILEGELFDFDL, the protein stability index was determined as 1.72. Take FIPADTGKDVATQILEGELFDFDL: the protein stability index is 2.66. Regarding FIPACTGKDVATQILEGELFDFDL, the protein stability index is 1.87.

As to FIPANTGKDVATQILEGELFDFDL, the protein stability index came out at 2.71. Turning to FIPAGTGKDVATQILEGELFDFDL, the protein stability index turned out to be 1.97. FIPAKTGKDCATQILEGELFDFDL: the protein stability index came to 1.67. The same measure, in the same setting: with FIPAKTGKDAATQILEGELFDFDL the figure was 1.84; with FIPAKTGKDEATQILEGELFDFDL, 2.52; with FIPAKTGKDDATQILEGELFDFDL, 2.28.

On to FIPAKTGKDGATQILEGELFDFDL, for which the protein stability index is 1.98. For the variant FIPAKTGKDFATQILEGELFDFDL, the protein stability index worked out at 1.9.

A further data set covers variants of B2. Described as above. The conditions noted are these: c terminus: native.
For LTEAEGWHFFCFQGMATRKLAGK, the protein stability index is 1.57. In the case of LTEAEYWHFFCFQGEATRKLAGK, the protein stability index came to 1.61. Consider LTEAEGWHFFCFQGEATRQLAGK, for which the protein stability index turned out to be 1.69. Same read-out and setting: for LTEAPGWHFFCFQGEATRKLAGK the value was 1.86. On the same count and under the same terms, with STEAEGWHFFCFQGEATRKLAGK the figure was 3.02; with LTEAEGWHFFCFQGEATRKLADK, 2.64.

Regarding LTEAEGWHFPCFQGEATRKLAGK, the protein stability index was 4.44. On to LTQAEGWHFFCFQGEATRKLAGK, for which the protein stability index is 1.82.

As to LTEAEGWHFFCFQGEATRKLWGK, the protein stability index worked out at 2.34.

LHEAEGWHFFCFQGEATRKLAGK: the protein stability index turned out to be 2.32. As for LMEAEGWHFFCFQGEATRKLAGK, the protein stability index was determined as 2.71. Still for that read-out and setting: with LCEAEGWHFFCFQGEATRKLAGK the figure was 1.99; with LTEAEGWHFFGFQGEATRKLAGK, 3.13. LTEAEGWPFFCFQGEATRKLAGK: the protein stability index is 2.97.
